Source: the supplement of paper PMC10567573

B1: FBXO3 (parent)
chain: AGGFQQRQGLKYCLPLTFCIHTGL

Variants of: B1
Assay: protein stability index of a GFP-peptide fusion (GPS, HEK-293T) (PSI 1-6); higher = more stable
Conditions: c terminus: a fixed tail appended
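Further: lentivirally expressed fusions sorted by FACS into six bins by GFP to DsRed ratio, PSI derived from sequencing read proportions per bin multiplied by bin number.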

Variant	protein stability index
AGGFQQRQGLKYCLPLTFSIHTGL	2.64
AGGFQQRQGLKYCLPLTFFIHTGL	2.44
AGGFQQRQGLKYCLPLTFLIHTGL	2.86
AGGFQQRQGLKYCLPLTFVIHTGL	2.83
AGGFQQRQGLKYCLPLTFPIHTGL	1.87
AGGFQQRQGLKYCLPLTFTIHTGL	3.13
AGGFQQRQGLKYCLPLTFGIHTGL	1.97
AGGFQQRQGLKYCLPLTFNIHTGL	2.04
AGGFQQRQGLKYCLPLTFMIHTGL	2.71
AGGFQQRQGLKCCLPLTFCIHTGL	2.32
AGGFQQRQGLKECLPLTFCIHTGL	2.29
AGGFQQRQGLKKCLPLTFCIHTGL	2.49
AGGFQQRQGLKPCLPLTFCIHTGL	1.68
AGGFQQRQGLKQCLPLTFCIHTGL	3.79
AGGFQQRQGLKDCLPLTFCIHTGL	2.21
AGGFQQRQGLKSCLPLTFCIHTGL	3.56
AGGFQQRQGLKACLPLTFCIHTGL	3.25
AGGFQQRQGLKRCLPLTFCIHTGL	3.39
AGGFQQRQGLKWCLPLTFCIHTGL	2.43
AGGFQQRQGLKMCLPLTFCIHTGL	2.59
AGGFQQRQGLKNCLPLTFCIHTGL	1.86
AGGFQQRQGLKVCLPLTFCIHTGL	2.36
AGGFQQRQGLKTCLPLTFCIHTGL	2.2
AGGFQQRQGLKGCLPLTFCIHTGL	3.3

Variant	protein stability index
AGGFQQRQGLKICLPLTFCIHTGL	2.84
AGGFQQRQGLKLCLPLTFCIHTGL	3.06
AGGFQQRQQLKYCLPLTFCIHTGL	2.5
AGGFQQRQSLKYCLPLTFCIHTGL	3.54
AGGFQQRQRLKYCLPLTFCIHTGL	1.48
AGGFQQRQVLKYCLPLTFCIHTGL	2.39
AGGFQQRQNLKYCLPLTFCIHTGL	2.28
AGGFQQRQTLKYCLPLTFCIHTGL	3.85
AGGFQQRQYLKYCLPLTFCIHTGL	3.4
AGGFQQRQGLKYCLPLTSCIHTGL	1.4
AGGFQQRQGLKYCLPLTMCIHTGL	2.41
AGGFQQRQGLKYCLPLTLCIHTGL	3.1
AGGFQQRQGLKYCLPLTICIHTGL	2.93
AGGFQQRQGLKYCLPLTPCIHTGL	1.68
AGGFQQRQGLKYCLPLTKCIHTGL	1.89
AGGFQQRQGLKYCLPLTYCIHTGL	2.71
AGGFQQRQGLKYCLPLTGCIHTGL	1.1
AGGFQQRQGLKYCLPLTQCIHTGL	2.47
AGGFQQRQGLKYCLPLTDCIHTGL	1.67
AGGFQQRQGLKYCLPLTRCIHTGL	1.05
AGGFQQRQGLKYCLPLTNCIHTGL	1.95
AGGFQQRQGLKYCLPLTVCIHTGL	4.06
AGGFQQRQGLKYCLPLTACIHTGL	2.38
AGGFQQRQGLKYCLPLTHCIHTGL	1.77

Variant	protein stability index
AGGFQQRQGLKYCLPLTTCIHTGL	1.19
AGGFQQRQGLKYCLPLTECIHTGL	2.36
AGGFQQRQGLKYCLLLTFCIHTGL	2.01
AGGFQQRQGLKYCLQLTFCIHTGL	2.27
AGGFQQRQGLKYCLKLTFCIHTGL	1.13
AGGFQQRQGLKYCLWLTFCIHTGL	1.61
AGGFQQRQGLKYCLGLTFCIHTGL	2.33
AGGFQQRQGLKYCLCLTFCIHTGL	2.57
AGGFQQRQGLKYCLFLTFCIHTGL	2.95
AGGFQQRQGLKYCLMLTFCIHTGL	2.93
AGGFQQRQGLKYCLRLTFCIHTGL	2.51
AGGFQQRQGLKYCLILTFCIHTGL	3.05
AGGFQQRQGLKYCLALTFCIHTGL	2.77
AGGFQQRQGLKYCLSLTFCIHTGL	2.81
AGGFQQRQGPKYCLPLTFCIHTGL	2.2
AGGFQQRQGMKYCLPLTFCIHTGL	2.56
AGGFQQRQGQKYCLPLTFCIHTGL	3.23
AGGFQQRQGFKYCLPLTFCIHTGL	2.03
AGGFQQRQGSKYCLPLTFCIHTGL	3.66
AGGFQQRQGDKYCLPLTFCIHTGL	2.84
AGGFQQRQGNKYCLPLTFCIHTGL	2.56
AGGFQQRQGEKYCLPLTFCIHTGL	2.19
AGGFQQRQGTKYCLPLTFCIHTGL	2.53
AGGFQQRQGWKYCLPLTFCIHTGL	3.49

Variant	protein stability index
AGGFQQRQGHKYCLPLTFCIHTGL	1.64
AGGFQQRQGCKYCLPLTFCIHTGL	2.26
AGGFQQRQGYKYCLPLTFCIHTGL	3.49
AGGFQQRQGKKYCLPLTFCIHTGL	3.64
AGGFQQRQGVKYCLPLTFCIHTGL	2.85
AGGFQQRQGAKYCLPLTFCIHTGL	2.95
AGGFQQRQGLKYCLPLTFCNHTGL	2.33
AGGFQQRQGLKYCLPLTFCSHTGL	2.43
AGGFQQRQGLKYCLPLTFCTHTGL	2.56
AGGFQQRQGLKYCLPLTFCDHTGL	2.93
AGGFQQRQGLKYCLPLTFCLHTGL	3.23
AGGFQQRQGLKYCLPLTFCMHTGL	2.73
AGGFQQRQGLKYCLPLTFCPHTGL	2.11
AGGFQQRQGLKYCLPLTFCGHTGL	2.69
AGGFQQRQGLKYCLPLTFCRHTGL	3.02
AGGFQQRQGLKYCLPLTFCAHTGL	1.89
AGGFQQRQGLKYCLPLTFCCHTGL	3.77
AGGFQQRQGLKYCLPLTFCKHTGL	1.6
AGGFQQRQGLKYCLPLTFCVHTGL	2.78
AGGFQQRQGLKYCLPLTFCEHTGL	2.95
AGGFQQRQGLKYCLPLTFCQHTGL	2.62
AGGFQQRQGLKYCLPLTFCFHTGL	2.34
